T1: Transmembrane-4 L six family member-1 (TM4SF1) (human, UniProt P30408 1-202, limits assumed)
T1 construct: also called hTM4SF1; human TM4SF1
T1 sequence: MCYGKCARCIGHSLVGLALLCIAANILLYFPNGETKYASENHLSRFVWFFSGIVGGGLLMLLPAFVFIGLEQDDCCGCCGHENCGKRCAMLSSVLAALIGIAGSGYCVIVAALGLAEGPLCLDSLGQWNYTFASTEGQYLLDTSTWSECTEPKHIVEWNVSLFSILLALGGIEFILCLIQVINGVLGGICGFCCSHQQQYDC


test system: not given; assay: not given; conditions: treatment with CA4P; cited from earlier work

Molecule | Patients who experienced heart attacks while being treated
COc1ccc(/C=C\c2cc(OC)c(OC)c(OC)c2)cc1OP(=O)(O)O [CA4P, Combretastatin] | seven

biological target: T1, Transmembrane-4 L six family member-1 …; assay: antibody screen (method not described in this filing); conditions: not given

Molecule | binding result
monoclonal murine antibody AGX-A08 (antibody, V domains shown, Murine monoclonal antibody) VH: EVQLQQSGPELVKPGASVKLSCKASGYTVTSYVMHWVKQKPGQGLEWIGYINPYSDVTNCNEKFKGKATLTSDKTSSTAYMELSSLTSEDSAVYYCSSYGGGFAYWGQGTLVTVSA VL: DIQMTQSPASLSASVGEPVTITCRASKNIYTYLAWYHQKQGKSPQFLVYNARTLAGGVPSRLSGSGSVTQFSLNINTLHREDLGTYFCQHHYDTPYTFGGGTNLEIK | binds
monoclonal murine antibody AGX-A09 (antibody, V domains shown, Murine monoclonal antibody) VH: EVQLQQSGPELVKPGASVKMSCKASGYTFSSYVMHWVKQKPGQGLEWIGYINPYSDVTNYNEKFKGKATLTSDRSSNTAYMELSSLTSEDSAVYYCARNYFDWGRGTLVTVSA VL: DIQMTQSPASLSASVGETVTITCRASKNVYSYLAWFQQKQGKSPQLLVYNAKTLAEGVPSRFSGGGSGTQFSLKINSLQPADFGSYYCQHHYNIPFTFGSGTKLEIK | binds
monoclonal murine antibody AGX-A07 (antibody, V domains shown, The humanized A07 variants (A07-YTEC etc.) used in the ADC killing assays are different molecules and are not entered) VH: QIQLVQSGPELKKPGETVKISCKASGYTFTNYGVKWVKQAPGKDLKWMGWINTYTGNPIYAADFKGRFAFSLETSASTAFLQINNLKNEDTATYFCVRFQYGDYRYFDVWGAGTTVTVSS VL: QIILSQSPAILSASPGEKVTMTCRANSGISFINWYQQKPGSSPKPWIYGTANLASGVPARFGGSGSGTSYSLTISRVEAEDAATYYCQQWSSNPLTFGAGTKLELR | binds
monoclonal murine antibody AGX-A04 (antibody, V domains shown, Murine monoclonal antibody) VH: EVQLQQSGPELVKPGASVKISCKTSGYTFTDYTMHWVRQSHGKSLEWIGSFNPNNGGLTNYNQKFKGKATLTVDKSSSTVYMDLRSLTSEDSAVYYCTRIRATGFDSWGQGTTLTVSS VL: DIVMSQSPSSLAVSAGEKVTMSCKSSQSLLNSRTRKNYLAWYQQKPGQSPKLLIYWASTRESGVPDRFTGSGSGTDFTLTISNVQAEDLTVYYCKQSYNPPWTFGGGTKLEIK | binds
monoclonal murine antibody AGX-A05 (antibody, V domains shown, Murine monoclonal antibody) VH: EVQVQQSGPELVKPGASVKMSCKASGYTFTSYVMHWVKQKPGQGLEWIGYINPNNDNINYNEKFKGKASLTSDKSSNTVYMELSSLTSEDSAVYYCAGYGNSGANWGQGTLVTVSA VL: DIQMTQSPASLSASVGETVTITCRTSKNIFNFLAWYHQKQGRSPRLLVSHTKTLAAGVPSRFSGSGSGTQFSLKINSLQPEDFGIYYCQHHYGTPWTFGGGTKLEIK | binds
monoclonal murine antibody AGX-A03 (antibody, V domains shown, Murine monoclonal antibody) VH: QIQLVQSGPELKKPGETVKISCKASGYSFRDYGMNWVKQAPGRTFKWMGWINTYTGAPVYAADFKGRFAFSLDTSASAAFLQINNLKNEDTATYFCARWVSYGNNRNWFFDFWGAGTTVTVSS VL: DVLMTQTPLSLPVRLGDQASISCRSSQTLVHSNGNTYLEWYLQKPGQSPKLLIYKVSNRLSGVPDRFSGSGSGTDFTLKISRVETEDLGVYYCFQGSHGPWTFGGGTKLEIK | binds

Source: US20230372518A1, “ANTIMITOTIC TETRAPEPTIDE-ANTIBODY CONJUGATES AND METHODS OF USING SAME” (Angiex, Inc., priority 2020, published 2023)
